Starred links: 1 amine or outer side, 2 acyl side, 3 side chain; linkers in the order of their positions; H or OH if unused. Non-standard residues stand in square brackets, D forms with d. *: point of attachment. X1 = ((1S)-1-carboxy-2-(4-hydroxyphenyl)ethyl)carbamoyl, O=C(O)[C@H](Cc1ccc(O)cc1)NC(=O)*; Ala(piperidin-4-yl) = O=C([C@H](CC1CCN([*:3])CC1)N[*:1])[*:2]; ((1S)-1-Carboxyethyl)carbamoyl = C[C@H](NC(=O)*)C(=O)O; Tetrahydropyran4carbonyl = O=C(C1CCOCC1)*; carbamoylmethylcarbamoyl = NC(=O)CNC(=O)*; Imidazole4carbonyl = O=C(c1cnc[nH]1)*; tBuAla = CC(C)(C)C[C@H](N)C(=O)O; 4Pal = N[C@@H](Cc1ccncc1)C(=O)O; dHyp = O=C(O)[C@H]1C[C@H](O)CN1; Cha = N[C@@H](CC1CCCCC1)C(=O)O; Isonicotinoyl = O=C(c1ccncc1)*; dIva = CC[C@@](C)(N)C(=O)O; Iva = CC[C@](C)(N)C(=O)O; Aib = CC(C)(N)C(=O)O
Assays:
[1] = target: T1, human Y2 receptor (Homo sapiens, UniProt P49146); assay: Receptor Binding Assay (RBA) for Human Y2, [125I]-PYY displacement on hY2R/CHO membrane fraction; settings: IC50 of test compound/IC50 of PYY(3-36) (PYY(3-36) taken as 1)
T1 construct: expressed in transfected cells; membrane fraction
T1 sequence (P49146 1-381): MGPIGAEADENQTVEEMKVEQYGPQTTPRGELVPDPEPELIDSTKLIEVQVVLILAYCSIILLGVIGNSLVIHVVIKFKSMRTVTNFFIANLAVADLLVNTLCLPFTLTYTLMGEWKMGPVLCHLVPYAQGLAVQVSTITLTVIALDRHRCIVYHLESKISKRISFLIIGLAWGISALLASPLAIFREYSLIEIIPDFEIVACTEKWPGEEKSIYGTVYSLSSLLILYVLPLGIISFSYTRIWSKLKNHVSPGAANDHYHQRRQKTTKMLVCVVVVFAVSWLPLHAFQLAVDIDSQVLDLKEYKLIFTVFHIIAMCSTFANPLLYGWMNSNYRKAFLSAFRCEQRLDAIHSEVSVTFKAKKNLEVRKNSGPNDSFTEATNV
In short: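 hY2R stably expressed in CHO/dhfr− cells; membrane fraction prepared from cells disrupted in 10 mM NaHCO3, 5 mM EDTA buffer with protease inhibitors. Binding read as displacement of [125I]-PYY.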

[2] = target: T1, human Y2 receptor; assay: Human Y2 Receptor G Protein Binding Assay (GBA), [35S]GTPγS; assay type: biochemical; settings: EC50 of test compound/EC50 of PYY(3-36) (PYY3-36 taken as 1), hY2R/CHO membrane fraction
In short: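 Agonism measured as [35S]GTPγS binding, read by GF/C filtration and scintillation counting after 120 min at room temperature, using human Y2 membranes at 1 μg protein/mL in pH 7.4 Tris/MgCl2/NaCl/GDP buffer. Compound serially diluted 100 μM–1 nM; EC50 normalized to PYY(3-36) (ratio = compound/PYY).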

[3] = system: male C57EL/6J mice; assay: 3-Days Continuous Subcutaneous Administration Test-1 (food intake suppressing activity); assay type: in vivo, mouse; settings: 0.03 mg/kg/day, subcutaneous Alzet pump, food consumption over 3 days; relative to food intake suppression rate for PYY(3-36) (1 mg/kg/day) taken as 100%
In short: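 Male […] mice, 12-13 weeks, received compound at 0.03 mg/kg/day by subcutaneous osmotic pump (50% DMSO vehicle), housed singly with free food access. Food consumed over 3 days measured; suppression expressed relative to PYY(3-36) (1 mg/kg/day) set as 100%.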

| RBA IC50 Ratio [1] | GBA EC50 Ratio [2] | Substance | food intake suppression rate (%) [3] |
| --- | --- | --- | --- |
| 0.78 | 0.94 | [(1S)-1-Carboxyethyl]carbamoyl-[D-Pro24, Pya(4)26, Cha27,36, Aib28,31, Lys30]-PYY(23-36) ({((1S)-1-Carboxyethyl)carbamoyl}-S[dP]R[4Pal][Cha][Aib]NK[Aib]TRQR[Cha]-NH2; SMILES C[C@H](NC(=O)N[C@@H](CO)C(=O)N1CCC[C@@H]1C(=O)N[C@@H](CCCNC(=N)N)C(=O)N[C@@H](Cc1ccncc1)C(=O)N[C@@H](CC1CCCCC1)C(=O)NC(C)(C)C(=O)N[C@@H](CC(N)=O)C(=O)N[C@@H](CCCCN)C(=O)NC(C)(C)C(=O)N[C@H](C(=O)N[C@@H](CCCNC(=N)N)C(=O)N[C@@H](CCC(N)=O)C(=O)N[C@@H](CCCNC(=N)N)C(=O)N[C@@H](CC1CCCCC1)C(N)=O)[C@@H](C)O)C(=O)O) [compound No. 286] | 37% |
| 3.3 | 1.9 | (Tetrahydro-2H-pyran-4-yl)carbonyl-[D-Pro24, Iva25, Pya(4)26, Cha27,36, Aib28,31, Lys30]-PYY(23-36) (Tetrahydropyran4carbonyl-S[dP][Iva][4Pal][Cha][Aib]NK[Aib]TRQR[Cha]-NH2; SMILES CC[C@](C)(NC(=O)[C@H]1CCCN1C(=O)[C@H](CO)NC(=O)C1CCOCC1)C(=O)N[C@@H](Cc1ccncc1)C(=O)N[C@@H](CC1CCCCC1)C(=O)NC(C)(C)C(=O)N[C@@H](CC(N)=O)C(=O)N[C@@H](CCCCN)C(=O)NC(C)(C)C(=O)N[C@H](C(=O)N[C@@H](CCCNC(=N)N)C(=O)N[C@@H](CCC(N)=O)C(=O)N[C@@H](CCCNC(=N)N)C(=O)N[C@@H](CC1CCCCC1)C(N)=O)[C@@H](C)O) [compound No. 342] | 36% |
| 1.7 | 1.7 | Carbamoylmethylcarbamoyl-[D-Pro24, Iva25, Pya(4)26, Cha27,36, Aib28,31, Lys30]-PYY(23-36) (carbamoylmethylcarbamoyl-S[dP][Iva][4Pal][Cha][Aib]NK[Aib]TRQR[Cha]-NH2; SMILES CC[C@](C)(NC(=O)[C@H]1CCCN1C(=O)[C@H](CO)NC(=O)NCC(N)=O)C(=O)N[C@@H](Cc1ccncc1)C(=O)N[C@@H](CC1CCCCC1)C(=O)NC(C)(C)C(=O)N[C@@H](CC(N)=O)C(=O)N[C@@H](CCCCN)C(=O)NC(C)(C)C(=O)N[C@H](C(=O)N[C@@H](CCCNC(=N)N)C(=O)N[C@@H](CCC(N)=O)C(=O)N[C@@H](CCCNC(=N)N)C(=O)N[C@@H](CC1CCCCC1)C(N)=O)[C@@H](C)O) [compound No. 331] | 35% |
| 0.39 | 1.3 | Ac-[D-Iva24, Pya(4)26, Cha27,36, Aib28,31, Lys30]-PYY(23-36) (Ac-S[dIva]R[4Pal][Cha][Aib]NK[Aib]TRQR[Cha]-NH2; SMILES CC[C@@](C)(NC(=O)[C@H](CO)NC(C)=O)C(=O)N[C@@H](CCCNC(=N)N)C(=O)N[C@@H](Cc1ccncc1)C(=O)N[C@@H](CC1CCCCC1)C(=O)NC(C)(C)C(=O)N[C@@H](CC(N)=O)C(=O)N[C@@H](CCCCN)C(=O)NC(C)(C)C(=O)N[C@H](C(=O)N[C@@H](CCCNC(=N)N)C(=O)N[C@@H](CCC(N)=O)C(=O)N[C@@H](CCCNC(=N)N)C(=O)N[C@@H](CC1CCCCC1)C(N)=O)[C@@H](C)O) [compound No. 242] | 25% |
| 1.1 | 0.71 | (Tetrahydro-2H-pyran-4-yl)carbonyl-[D-Pro24, Pya(4)26, Cha27,36, Aib28,31, Lys30]-PYY(23-36) (Tetrahydropyran4carbonyl-S[dP]R[4Pal][Cha][Aib]NK[Aib]TRQR[Cha]-NH2; SMILES C[C@@H](O)[C@H](NC(=O)C(C)(C)NC(=O)[C@H](CCCCN)NC(=O)[C@H](CC(N)=O)NC(=O)C(C)(C)NC(=O)[C@H](CC1CCCCC1)NC(=O)[C@H](Cc1ccncc1)NC(=O)[C@H](CCCNC(=N)N)NC(=O)[C@H]1CCCN1C(=O)[C@H](CO)NC(=O)C1CCOCC1)C(=O)N[C@@H](CCCNC(=N)N)C(=O)N[C@@H](CCC(N)=O)C(=O)N[C@@H](CCCNC(=N)N)C(=O)N[C@@H](CC1CCCCC1)C(N)=O) [compound No. 324] | 42% |
| 0.93 | 1.6 | 4-Pyridinecarbonyl-[D-Hyp24, Iva25, Pya(4)26, Cha27,36, Leu(Me)28, Lys30, Aib31]-PYY(23-36) (Isonicotinoyl-S[dHyp][Iva][4Pal][Cha][tBuAla]NK[Aib]TRQR[Cha]-NH2; SMILES CC[C@](C)(NC(=O)[C@H]1C[C@H](O)CN1C(=O)[C@H](CO)NC(=O)c1ccncc1)C(=O)N[C@@H](Cc1ccncc1)C(=O)N[C@@H](CC1CCCCC1)C(=O)N[C@@H](CC(C)(C)C)C(=O)N[C@@H](CC(N)=O)C(=O)N[C@@H](CCCCN)C(=O)NC(C)(C)C(=O)N[C@H](C(=O)N[C@@H](CCCNC(=N)N)C(=O)N[C@@H](CCC(N)=O)C(=O)N[C@@H](CCCNC(=N)N)C(=O)N[C@@H](CC1CCCCC1)C(N)=O)[C@@H](C)O) [compound No. 333] | 28% |
| 0.76 | 1.1 | 4-Imidazolecarbonyl-[D-Pro24, Pya(4)26, Cha27,36, Aib28,31, Lys30]-PYY(23-36) (Imidazole4carbonyl-S[dP]R[4Pal][Cha][Aib]NK[Aib]TRQR[Cha]-NH2; SMILES C[C@@H](O)[C@H](NC(=O)C(C)(C)NC(=O)[C@H](CCCCN)NC(=O)[C@H](CC(N)=O)NC(=O)C(C)(C)NC(=O)[C@H](CC1CCCCC1)NC(=O)[C@H](Cc1ccncc1)NC(=O)[C@H](CCCNC(=N)N)NC(=O)[C@H]1CCCN1C(=O)[C@H](CO)NC(=O)c1cnc[nH]1)C(=O)N[C@@H](CCCNC(=N)N)C(=O)N[C@@H](CCC(N)=O)C(=O)N[C@@H](CCCNC(=N)N)C(=O)N[C@@H](CC1CCCCC1)C(N)=O) [compound No. 213] | 33% |
| 4.3 | 5.8 | Ac-[D-Pro24, Ala(4Pip)25, Pya(4)26, Cha27,36, Aib28,31, Lys30]-PYY(23-36) [compound No. 312] (Ac-S[dP][Ala(piperidin-4-yl)][4Pal][Cha][Aib]NK[Aib]TRQR[Cha]-NH2; SMILES CC(=O)N[C@@H](CO)C(=O)N1CCC[C@@H]1C(=O)N[C@@H](CC1CCNCC1)C(=O)N[C@@H](Cc1ccncc1)C(=O)N[C@@H](CC1CCCCC1)C(=O)NC(C)(C)C(=O)N[C@@H](CC(N)=O)C(=O)N[C@@H](CCCCN)C(=O)NC(C)(C)C(=O)N[C@H](C(=O)N[C@@H](CCCNC(=N)N)C(=O)N[C@@H](CCC(N)=O)C(=O)N[C@@H](CCCNC(=N)N)C(=O)N[C@@H](CC1CCCCC1)C(N)=O)[C@@H](C)O) | 10% |

| Substance | RBA IC50 Ratio [1] | GBA EC50 Ratio [2] | food intake suppression rate (%) [3] |
| --- | --- | --- | --- |
| [(1S)-1-Carboxy-2-(4-hydroxyphenyl)ethyl]carbamoyl-[D-Pro24, Pya(4)26, Cha27,36, Aib28,31, Lys30]-PYY(23-36) (X1-S[dP]R[4Pal][Cha][Aib]NK[Aib]TRQR[Cha]-NH2; SMILES C[C@@H](O)[C@H](NC(=O)C(C)(C)NC(=O)[C@H](CCCCN)NC(=O)[C@H](CC(N)=O)NC(=O)C(C)(C)NC(=O)[C@H](CC1CCCCC1)NC(=O)[C@H](Cc1ccncc1)NC(=O)[C@H](CCCNC(=N)N)NC(=O)[C@H]1CCCN1C(=O)[C@H](CO)NC(=O)N[C@@H](Cc1ccc(O)cc1)C(=O)O)C(=O)N[C@@H](CCCNC(=N)N)C(=O)N[C@@H](CCC(N)=O)C(=O)N[C@@H](CCCNC(=N)N)C(=O)N[C@@H](CC1CCCCC1)C(N)=O) [compound No. 285] | 0.95 | 1.2 | 28% |
| Ac-[D-Pro24, Pya(4)26, Cha27,36, Iva28, Lys30, Aib31]-PYY(23-36) (Ac-S[dP]R[4Pal][Cha][Iva]NK[Aib]TRQR[Cha]-NH2; SMILES CC[C@](C)(NC(=O)[C@H](CC1CCCCC1)NC(=O)[C@H](Cc1ccncc1)NC(=O)[C@H](CCCNC(=N)N)NC(=O)[C@H]1CCCN1C(=O)[C@H](CO)NC(C)=O)C(=O)N[C@@H](CC(N)=O)C(=O)N[C@@H](CCCCN)C(=O)NC(C)(C)C(=O)N[C@H](C(=O)N[C@@H](CCCNC(=N)N)C(=O)N[C@@H](CCC(N)=O)C(=O)N[C@@H](CCCNC(=N)N)C(=O)N[C@@H](CC1CCCCC1)C(N)=O)[C@@H](C)O) [compound No. 233] | 0.33 | 1.2 | 36% |
